# Test results published in the Human Domainome abundance scans (Beltran et al. 2025).
# ± gives the uncertainty stated by the source.
# B1: Retinoic acid receptor RXR-alpha, residues 132 to 208; numbered along this chain, P19793 (parent)
# chain: KHICAICGDRSSGKHYGVYSCEGCKGFFKRTVRKDLTYTCRDNKDCLIDKRQRNRCQYCRYQKCLAMGMKREAVQEE
# Variants of: B1
# Experiment: abundance fitness (aPCA) (normalised: wild type 0, dead -1); higher = more abundant; growth selection in yeast, the domain comes from the species named
# Conditions: Homo sapiens
row,Variant,abundance fitness
1,KHICAICGDWSSGKHYGVYSCEGCKGFFKRTVRKDLTYTCRDNKDCLIDKRQRNRCQYCRYQKCLAMGMKREAVQEE [R10W],-0.044 ± 0.035
2,KHICAICGDRSSGKHYGVYSCEGCKGFFKRTVPKDLTYTCRDNKDCLIDKRQRNRCQYCRYQKCLAMGMKREAVQEE [R33P],-0.143 ± 0.034
3,KHICAICGDRSSGKHYGVYSCEGCKGFFKRTVFKDLTYTCRDNKDCLIDKRQRNRCQYCRYQKCLAMGMKREAVQEE [R33F],-0.033 ± 0.034
4,KHICAICGDRSSGKHYGVYSCEGCKGFFKRTVRKDLTYTCRDNKDCLIYKRQRNRCQYCRYQKCLAMGMKREAVQEE [D49Y],-0.183 ± 0.18
5,KHICAICGDRSSGKHYGVYSCEGCKGFFKRTVRKDLTYTCRDNKDCLIAKRQRNRCQYCRYQKCLAMGMKREAVQEE [D49A],0.009 ± 0.044
6,KHICAICGDRSSGKHYGVYSCEGCKGFFKRTVRKDCTYTCRDNKDCLIDKRQRNRCQYCRYQKCLAMGMKREAVQEE [L36C],0.087 ± 0.053
7,KHICAICGDRSSGKHYGVYSCEGCKGFFKRTVRKDHTYTCRDNKDCLIDKRQRNRCQYCRYQKCLAMGMKREAVQEE [L36H],0.014 ± 0.06
8,KHICAICGDRSSGKHYGVYSCEGCKGFFKRTVRKDLTYTCRDNKDCLIDKRQDNRCQYCRYQKCLAMGMKREAVQEE [R53D],0.002 ± 0.041
9,KHICAICGDRSSGKHYKVYSCEGCKGFFKRTVRKDLTYTCRDNKDCLIDKRQRNRCQYCRYQKCLAMGMKREAVQEE [G17K],-0.085 ± 0.046
10,KHICAICGDRSSGKHYGVKSCEGCKGFFKRTVRKDLTYTCRDNKDCLIDKRQRNRCQYCRYQKCLAMGMKREAVQEE [Y19K],-0.032 ± 0.035
11,KHICAICGDRSSGKHYGVISCEGCKGFFKRTVRKDLTYTCRDNKDCLIDKRQRNRCQYCRYQKCLAMGMKREAVQEE [Y19I],-0.107 ± 0.041
12,KHHCAICGDRSSGKHYGVYSCEGCKGFFKRTVRKDLTYTCRDNKDCLIDKRQRNRCQYCRYQKCLAMGMKREAVQEE [I3H],0.017 ± 0.031
13,KHRCAICGDRSSGKHYGVYSCEGCKGFFKRTVRKDLTYTCRDNKDCLIDKRQRNRCQYCRYQKCLAMGMKREAVQEE [I3R],-0.218 ± 0.031
14,KHICAICGDRSSGKHYGVYSCEFCKGFFKRTVRKDLTYTCRDNKDCLIDKRQRNRCQYCRYQKCLAMGMKREAVQEE [G23F],-0.424 ± 0.038
15,KHICAICGDRSSGKHYGVYSCEWCKGFFKRTVRKDLTYTCRDNKDCLIDKRQRNRCQYCRYQKCLAMGMKREAVQEE [G23W],-0.015 ± 0.028
16,KHICAICGDRSSGKHYGVYSCEKCKGFFKRTVRKDLTYTCRDNKDCLIDKRQRNRCQYCRYQKCLAMGMKREAVQEE [G23K],-0.128 ± 0.033
17,KHICAICGDRSSGKHYGVYSCEVCKGFFKRTVRKDLTYTCRDNKDCLIDKRQRNRCQYCRYQKCLAMGMKREAVQEE [G23V],-0.144 ± 0.025
18,DHICAICGDRSSGKHYGVYSCEGCKGFFKRTVRKDLTYTCRDNKDCLIDKRQRNRCQYCRYQKCLAMGMKREAVQEE [K1D],-0.02 ± 0.05
19,LHICAICGDRSSGKHYGVYSCEGCKGFFKRTVRKDLTYTCRDNKDCLIDKRQRNRCQYCRYQKCLAMGMKREAVQEE [K1L],-0.333 ± 0.05
20,KHICAICGDRSSGKHYGVYSCEGCKGFFKRTVRKDLTYTCRDNKDCLIDKRQRNRCQYRRYQKCLAMGMKREAVQEE [C59R],-0.955 ± 0.11
21,KHICAICGDRSSGKKYGVYSCEGCKGFFKRTVRKDLTYTCRDNKDCLIDKRQRNRCQYCRYQKCLAMGMKREAVQEE [H15K],-0.138 ± 0.034
22,KHICAICGDRSSGKPYGVYSCEGCKGFFKRTVRKDLTYTCRDNKDCLIDKRQRNRCQYCRYQKCLAMGMKREAVQEE [H15P],-0.034 ± 0.028
23,KHICAICGDRSSGKHYGVYSCEGCKGFFKRTVRKDLTNTCRDNKDCLIDKRQRNRCQYCRYQKCLAMGMKREAVQEE [Y38N],-0.101 ± 0.065
24,KHICAICGDRSSGKHYGVYSCEGCKGFFKRTVRKDLTDTCRDNKDCLIDKRQRNRCQYCRYQKCLAMGMKREAVQEE [Y38D],-0.115 ± 0.054

row,Variant,abundance fitness
1,KHICAICGDRSSGKHYGVYSCEGCKGFFKRTVRKDLTYTCRDNKDCLIDKRQRNRCQYCRYQKCLAMGMKREAKQEE [V74K],0.056 ± 0.044
2,KHICAICGDRSSGKHYGVYSCEGCKGFFKRTVRKDLTYTCRDNKDCLIDKRQRNRCQYCRYQKCLAMGMKREAHQEE [V74H],-0.021 ± 0.034
3,KHICAICGDRSSGKHYGVYSCEGCKGFFKRTVRKDLTYTCRDNKDCLIDKRQRNRCQYCRYQKCLAMGMKREARQEE [V74R],-0.03 ± 0.032
4,KHICAICGDRSSGKHYGAYSCEGCKGFFKRTVRKDLTYTCRDNKDCLIDKRQRNRCQYCRYQKCLAMGMKREAVQEE [V18A],-0.133 ± 0.035
5,KHICAICGDRSSGKHYGVYSCEGCKGFFKRTVRKDLTYICRDNKDCLIDKRQRNRCQYCRYQKCLAMGMKREAVQEE [T39I],0.099 ± 0.052
6,KHICAICGDRSSGKHYGVYQCEGCKGFFKRTVRKDLTYTCRDNKDCLIDKRQRNRCQYCRYQKCLAMGMKREAVQEE [S20Q],0.012 ± 0.035
7,KHICAICGDRSSGKHYGVYSCEGCKGFFKRTVRKDLTYTNRDNKDCLIDKRQRNRCQYCRYQKCLAMGMKREAVQEE [C40N],-0.732 ± 0.15
8,KHICAICGDRSSGKHYGVYSCEGCKGFFKRTVRKDLTYTLRDNKDCLIDKRQRNRCQYCRYQKCLAMGMKREAVQEE [C40L],-0.454 ± 0.05
9,KHICAICGDRSSGKHYGVYSCEGCKGFFKRTVRKDLTYTCRDNKDCLGDKRQRNRCQYCRYQKCLAMGMKREAVQEE [I48G],-0.007 ± 0.029
10,KHICAICGDRSSGKHYGVYSCEGCKGFFKRTVRKDLTYTCRDNKDCLDDKRQRNRCQYCRYQKCLAMGMKREAVQEE [I48D],-0.031 ± 0.15
11,KHICAICGDRSSGKHYGVYSLEGCKGFFKRTVRKDLTYTCRDNKDCLIDKRQRNRCQYCRYQKCLAMGMKREAVQEE [C21L],-0.986 ± 0.055
12,KHICAICGDRSSGKHYGVYSCEGCKGFFKRTVRKDLTYTCRDNKDCLIDKRQRNRCQYCRYQKCLAMGMKAEAVQEE [R71A],0.033 ± 0.029
13,KHICAICGDRSSGKHYGVYSCEGCKGFFKRTVRKDLTYTCRDNKDCLIDKRQRNRCQYCRYQKCLAMGMKLEAVQEE [R71L],0.033 ± 0.024
14,KHICAICGDRSSGKHYGVYSCEGCKGFFKRTVRKDLTYTCRDNKDCLIDKRQRNRCQYCRCQKCLAMGMKREAVQEE [Y61C],-0.06 ± 0.28
15,KHICAICGDRSSGKHYGVYSCEGCKGFFKRTVRKDLTYTCRDNKDCLIDKIQRNRCQYCRYQKCLAMGMKREAVQEE [R51I],-0.001 ± 0.062
16,KHICAICGDRSSGKHYGVYSCEGCKGFFKRTVRKDLTYTCRDNKDCLIDKLQRNRCQYCRYQKCLAMGMKREAVQEE [R51L],0.022 ± 0.038
17,KHIEAICGDRSSGKHYGVYSCEGCKGFFKRTVRKDLTYTCRDNKDCLIDKRQRNRCQYCRYQKCLAMGMKREAVQEE [C4E],-0.866 ± 0.11
18,KHIRAICGDRSSGKHYGVYSCEGCKGFFKRTVRKDLTYTCRDNKDCLIDKRQRNRCQYCRYQKCLAMGMKREAVQEE [C4R],-1.02 ± 0.066
19,KHICAICGDRSSGKHAGVYSCEGCKGFFKRTVRKDLTYTCRDNKDCLIDKRQRNRCQYCRYQKCLAMGMKREAVQEE [Y16A],0.011 ± 0.027
20,KHICAICGDRSSGKHYGVYSCEGCKGFFKRTVRKDLTYTCRDNKDCRIDKRQRNRCQYCRYQKCLAMGMKREAVQEE [L47R],-0.109 ± 0.029
21,KHICAICGDRSSGKHYGVYSCEGCKGFFKRTVRKDLTYTCRDNKDCAIDKRQRNRCQYCRYQKCLAMGMKREAVQEE [L47A],0.005 ± 0.035
22,KHICAICGDRSSGKHYGVYSCEGCKGFFKRTVRKDLTYTCRDNKDCLIDKRQRNRCQYCRYQKCLAMGMKREAVSEE [Q75S],-0.004 ± 0.028
23,KHICAICGDRSSGKHYGVYSCEGCKGFFKRTVRKDLTYTCRDNKDCLIDKRQRNRCQYCRYQKCLAMGMKREAVPEE [Q75P],-0.002 ± 0.033
24,KHICAICGDRSSGKHYGVYSCEGCKGFFKRTVRKDLTYTCRDNKDCLIDKRQRNRCQRCRYQKCLAMGMKREAVQEE [Y58R],-0.032 ± 0.033

row,Variant,abundance fitness
1,KHICAICGDRSSGKHYGVYSCEGCKGFFKRTVRKDLTYTCRDMKDCLIDKRQRNRCQYCRYQKCLAMGMKREAVQEE [N43M],0.02 ± 0.048
2,KHICAICGDRSSGKHYGVYSCEGCKGFFKRTVRKDLTYTCRDVKDCLIDKRQRNRCQYCRYQKCLAMGMKREAVQEE [N43V],0.013 ± 0.037
3,KHICDICGDRSSGKHYGVYSCEGCKGFFKRTVRKDLTYTCRDNKDCLIDKRQRNRCQYCRYQKCLAMGMKREAVQEE [A5D],0.016 ± 0.044
4,KHICAICGDRSSGKHYGVYSCEGCKGFFKRTVRKDLTYTCRDNKDCLIDKRQRNRCQYCRYQKCLAQGMKREAVQEE [M67Q],-0.017 ± 0.036
5,KHICAICGDRSSGKHYGVYSCEGCKGFFKRTVRKDLTYTCRDNKDCLIDKRQRNRCQYCRYQKCLAYGMKREAVQEE [M67Y],-0.008 ± 0.031
6,KHICAICGDRSSGKHYGVYSCEGCKGFFKRTVRKDLTYTCRDNKDCLIDYRQRNRCQYCRYQKCLAMGMKREAVQEE [K50Y],-0.092 ± 0.078
7,KHICAICGDRSSGKHYGVYSCEGCKGFFKRTVRKDLTYTCRDNKDCLIDKRQRNRCQYCRYQKYLAMGMKREAVQEE [C64Y],-0.421 ± 0.4
8,KHICAICGDRSSGKHYGVYSCEGCKGFFKRTVRKDLTYTCRDNKDCLIDKRQRNRCQYCRYQKCLAMGMKREAVQWE [E76W],-0.052 ± 0.053
9,KHICAICGDRSSGKHYGVYSCEGCKGFFKRTVRKDLTYTCRDNKDCLIDKRQRNRCQYCRYQKCLAMGMKREAVQPE [E76P],-0.054 ± 0.034
10,KHICAICGDRSSGKHYGVYSCEGCKGFFKRYVRKDLTYTCRDNKDCLIDKRQRNRCQYCRYQKCLAMGMKREAVQEE [T31Y],-0.094 ± 0.035
11,KHICAICGDRSSGCHYGVYSCEGCKGFFKRTVRKDLTYTCRDNKDCLIDKRQRNRCQYCRYQKCLAMGMKREAVQEE [K14C],-0.027 ± 0.05
12,KHICAICGDRSSGGHYGVYSCEGCKGFFKRTVRKDLTYTCRDNKDCLIDKRQRNRCQYCRYQKCLAMGMKREAVQEE [K14G],-0.004 ± 0.025
13,KHICAICGDRSSGMHYGVYSCEGCKGFFKRTVRKDLTYTCRDNKDCLIDKRQRNRCQYCRYQKCLAMGMKREAVQEE [K14M],0.001 ± 0.042
14,KHICAICGDRSSGKHYGVYSCEGCKVFFKRTVRKDLTYTCRDNKDCLIDKRQRNRCQYCRYQKCLAMGMKREAVQEE [G26V],0.007 ± 0.03
15,KHICAICGDRSSGKHYGVYSCEGCKGFFKRTVRKDLPYTCRDNKDCLIDKRQRNRCQYCRYQKCLAMGMKREAVQEE [T37P],0.064 ± 0.056
16,KHICAICGQRSSGKHYGVYSCEGCKGFFKRTVRKDLTYTCRDNKDCLIDKRQRNRCQYCRYQKCLAMGMKREAVQEE [D9Q],0.033 ± 0.045
17,KHICAICGTRSSGKHYGVYSCEGCKGFFKRTVRKDLTYTCRDNKDCLIDKRQRNRCQYCRYQKCLAMGMKREAVQEE [D9T],-0.089 ± 0.031
18,KHICAICGDRSSGKHYGVYSCEGCKGFFKRTVRKDLTYTCRDNKDCLIDKRQRNRCQYCRYQKCLAMGGKREAVQEE [M69G],-0.159 ± 0.042
19,KHICAICGDRSSGKHYGVYSCEGCKGFFKRTVRKDLTYTCRDNKDCLIDKRQRNRCQYCRYQKCLVMGMKREAVQEE [A66V],0.029 ± 0.033
20,KHICAICGDRSSGKHYGVYSCEGCKGFFKRTVRKDLTYTCRDNKDCLIDKRQRNRCQYCRYQKCLKMGMKREAVQEE [A66K],0.045 ± 0.047
21,KHICAICGDRSSGKHYGVYSCEGCKGFFKRTVRKDLTYTCRDNKDCLIDKRQRNRCQYCRYQKCLIMGMKREAVQEE [A66I],-0.032 ± 0.035
22,KHICAICGDRSSGKHYGVYSCEGCKGFFKRTVRKDLTYTCRDNKDCLIDKRQRNRCQYCRYQKCLMMGMKREAVQEE [A66M],-0.042 ± 0.042
23,KHICAICGDRSSGKHYGVYSCEGCKGFFKRTVRKDLTYTCRDNKDCLIDKRQRNRCQYCRYQKCLAMGMKREAVQEI [E77I],0.038 ± 0.044
